Data as given in paper PMC3378519, “Contribution of DEAF1 Structural Domains to the Interaction with the Breast Cancer Oncogene LMO4” (PLoS ONE, 2012).

B1: MBP-fused full length DEAF1, recombinant (natural protein, mouse, UniProt Q9Z1T5-1 1-566, looked up)
chain: MEDSDSAAKQLGLAEAAAVAAAAAVAAAAAAAAESEAEEPVLSRDEDSEEDADSEAERETRRVTAVAVMAAESGHMDMGTEALPSPDEAAAAAAAFAEVTTVTVANVGSSADNVFTTSVANAASISGHVLSGRTALQIGDSLNTEKATLIVVHTDGSIVETTGLKGPAAPLTPGPQSPPTPLAPGQEKGGTKYNWDPSVYDSELPVRCRNISGTLYKSRLGSGGRGRCIKQGENWYSPTEFEAMAGRASSKDWKRSIRYAGRPLQCLIQDGILNPHAASCTCAACCDDMTLSGPVRLFVPYKRRKKENELPTTPVKKDSPKNITLLPATAATTFTVTPSGQITTSGALTFDRASTVEATAVISESPAQGDVFAGATVQEAGVQPPCRVGHPEPHYPGYQDSCQIAPFPEAALPTSHPKIVLTSLPALAVPPSTPTKAVSPTVVSGLEMSEHRSWLYLEEMVNSLLNTAQQLKTLFEQAKQASSCREAAVTQARMQVDTERKEQSCVNCGREAMSECTGCHKVNYCSTFCQRKDWKDHQHVCGQSASVTVQADDVHVEESVIEKVAV
notes: DEAF1, mouse, NM_016874, full length; pMALC2 construct; about 10 subunits by SEC-MALLS, mixture of species; not shown: MBP, N-terminal, kept
B2: DEAF1_(404–479), recombinant protein for SEC-MALLS (domain or fragment, mouse, UniProt Q9Z1T5-1 404-479, looked up)
chain: IAPFPEAALPTSHPKIVLTSLPALAVPPSTPTKAVSPTVVSGLEMSEHRSWLYLEEMVNSLLNTAQQLKTLFEQAK
notes: DEAF1, mouse, NM_016874; source: recombinant
B3: GB1-tagged DEAF1_(454–487), isolated coiled coil, recombinant (domain or fragment, mouse, UniProt Q9Z1T5-1 454-487, looked up)
chain: WLYLEEMVNSLLNTAQQLKTLFEQAKQASSCREA
notes: DEAF1, mouse, NM_016874; source: E. coli Rosetta 2, purified (DEAE sepharose, Ni-NTA); not shown: His6, N-terminal, kept; GB1 (Gβ-1 domain of streptococcal protein G), N-terminal, kept
B4: MBP-fused DEAF1_(335–485), recombinant (domain or fragment, mouse, UniProt Q9Z1T5-1 335-485, looked up)
chain: TVTPSGQITTSGALTFDRASTVEATAVISESPAQGDVFAGATVQEAGVQPPCRVGHPEPHYPGYQDSCQIAPFPEAALPTSHPKIVLTSLPALAVPPSTPTKAVSPTVVSGLEMSEHRSWLYLEEMVNSLLNTAQQLKTLFEQAKQASSCR
notes: DEAF1, mouse, NM_016874; pMALC2 construct; not shown: MBP, N-terminal, kept

Target: the molecule itself
Assay: SEC-MALS; SEC-MALLS; about 200 µg of protein on a Superose 12 column with in-line MALLS detector; weight-averaged molecular weight in solution

| Protein | stoichiometry N | binding result |
| --- | --- | --- |
| B1 | ~10 subunits | – |
| B2 | – | binds |
| B3 | 4 subunits | – |
| B4 | 4 subunits | – |
